Consider 21 sequences from the DeepSol protein solubility set.

The nature of the data set: soluble on expression in E. coli; label from the status in PepcDB or PDB records.
In the case of “MGSDKIHHHHHHMREDIVVIGGYGQVGRAICRLLARRYAGRVYAAGRNFEKANRFSLETDGEVQPLQVDIHQPKKAFEALNQPKVVIVCIDQDHTEFARLCAKNGIDYLDITANGKFLKELGGLNRGAVKHTGVISVGLAPGITNLLVEQAVRMFEQVHQVDISILLGLGDEHGVGAMEWTFQQINQSFDVMVQNDWRQVKSFTDRKQVSFGKAIGNHSVYRFPFSDQQTLARTLHLPTVSTRLCFDSRLVTAVVATMRRLHITKLLSLPAVRKVLTTLLNVFPYGSEQYGVRVEVKGVRKDEKEEVYSLFTGENEALMTAHVASAVAFALYEHPCPKGVFHIEELFELVFIDQHISLTLKGTEFSYPLPTPKQFVQNETSICSQNHS”, the “soluble on expression in E. coli” value is given as “not soluble”. As to “KLMKVNHAADAAEEGLVSDPLEWTGVRIGPGINGTIAQLPTLAGEEIIATRVVHSKTFHSLAAPNDRLHEGMVLVIHGTPDALERAIAKVGKQQDVPIEDTDLVYSRFTVSSKAVVGRKISDLDTVRSGFIISRLRRGDADVVPEPDDVLHYSDRVRVIAPANRMSEVRRFLGDSERSLADVD”, the “soluble on expression in E. coli” value is on record as “not soluble”.

In the case of “MGSDKIHHHHHHMSPQEYCQNKAAASGSSFYYSFLFLPKAKREAITALYAFCREVDDIADDVQDVNVAQTKLNWWRSEIINLFEGKPQHPVTMALQSPVRELKLKQQHFLEIINGMQMDLEQNRYRDFEELELYCYRVASVVGLLSASIFGYSNPQTLQYALDLGMAFQLTNITRDVGEDGRRGRIYLPLDEISRFGVSEQDILQGKASDNMRQLLEFQVERAERYYEKALAELPLEDRKQQRTGLIMASIYRTLLKEIKRDDIQVVLNARVSLTPIRKLWLAWLTWIRN”, the “soluble on expression in E. coli” value is on record as “not soluble”.

Turning to “GSHMSLSNKLTLDKLDVKGKRVVMRVDFNVPMKNNQITNNQRIKAAVPSIKFCLDNGAKSVVLMSHLGRPDGVPMPDKYSLEPVAVELKSLLGKDVLFLKDCVGPEVEKACANPAAGSVILLENLRFHVEEEGKGKDASGNKVKAEPAKIEAFRASLSKLGDVYVNDAFGTAHRAHSSMVGVNLPQKAGGFLMKKELNYFAKALESPERPFLAILGGAKVADKIQLINNMLDKVNEMIIGGGMAFTFLKVLNNMEIGTSLFDEEGAKIVKDLMSKAEKNGVKITLPVDFVTADKFDENAKTGQATVASGIPAGWMGLDCGPESSKKYAEAVTRAKQIVWNGPVGVFEWEAFARGTKALMDEVVKATSRGCITIIGGGDTATCCAKWNTEDKVSHVSTGGGASLELLEGKVLPGVDALSNI”, the “soluble on expression in E. coli” value is “soluble”.

Take “MAKSRLLLSELLDQLSFALCIVRNDYVIVKVNEYFESRVIFDGETMQGKNILELFPESADYLKRKIDTALVIESSSFSSWEQKPHLLPFKSSRPVSGEEEQMYQNLEVIPIHSEDGTIEHVCLCVYDVTIQASQQQELKRVSQKLEEEHQSQKVLIKKLEDAQGQLIQSEKMASIGQLSAGIAHEINNPVGFITSNLQTLSDYFNSLEKVLKSITQTIGQSKDTALNEACQKILKQGQVDFILEDTAELITESLEGSSRVMSIVKNLKEFSHVDRSEWSYANLENCIESTLKIINNEIKYNITLEKHYAANVPDVFCQPMQINQVLLNILVNASHAIKGEGTITITLQSAGDDFVEIHIRDTGCGIPEEIRERIFEPFFTTKPVGSGTGLGLSVSYGIINKHNGTISVTSEVGKGSEFTIRLPVNPSAEAVDNTDAKAM”: the “soluble on expression in E. coli” value is “not soluble”. Take “MFLKRIELQREKVLSFQEYPFSIPAIKHFQRLELKSRVTFFVGENGSGKSTLLEAIADKCEFNTAGGGRNNYYEVDASESALGDYIRLSWLPKVSNGFFLRAESFYHFASHVDEVDARHAYGGRSLHHQSHGEAFLSLFANRFNRKGIYLLDEPEAALSPRRQLSFLAILHDLVSSGDSQFIIATHSPILLGYPHATILSFDHGTIEETTYEQTEHYQLTRYFLENRERMLRELLGELEHHHHHH”: the “soluble on expression in E. coli” value is listed as “not soluble”.

With “MTPLPVTVIGGYLGAGKTTLVNHLLRHAAGRRLAVLVNEFGDLPIDADLIEAEEDGMISIAGGCICCSFGSDLIGALNDLAAMEPRPDHILVESSGVAIPGAIVSTMLLADGIRSDGIVVVVDGETVRQRAQDDYVGDTITRQLSDAEIVVVNKTDLLAHAVQTELMEWLAEAAPGAIAIPAERGRVAPGALLGVLPAPGTGQPAHHSDRLFDSLVLAPEGGQPIERLARDLATGPHGVIRAKGYLRDIEGALWLIQTVGRRWEVTPAQGPHQTGLVCIGFRDRLDRSGLAALAGATV”, the “soluble on expression in E. coli” value is “not soluble”. For “MSLTNLTVHTLEKDDIDSIIEIENLCFPTPWTKESMEGELRNKFAKYVVIKNNNLVVGYGGLWLIIDEGHITNIAVHPEFRGMGIGNKILEELIKLCEKRNIPSMTLEVRISNTIAQNLYKKFGFKEAGVRKKYYGDNDEDALIMWRNEGHHHHHH” the value was “soluble”; for “MAHHHHHHMLNALGITSPRHDALIAKFLKAMAVEGGASEATKRDEAVDAARFVYVFSTVWRAAVTHRTPRSPVSTRVSAPPRSPPAAQQHGNSPDGATMRHAYSREVSCRGAPPSHMKAAPATEVGSSGGSGSAVSARSSSSPSAVWSSSEGGEGAAHSHTESASPLTSCGGGDERRSDAAESDADFLRTNISDASSSIPDSSEKPQAGVRSEELSPMSVEPSAGLDPSPEPCNPGEPVIITSARSSVTPRTHHCSPFAAASRLGSASVSRSRRMSSSLRVIPSDSHLLSSTTSRELKRATKRVPGGLMRECTFKPVINSVYEQSPVSFSSTAIVQKRKPASTAPPTFQPNTQQFHQARDSLARWTRQPIKDNSDYRGEAAANPLATGVETAVRRMIAARQQRQRSQSPRPSLQKGSHHSAPAPQSTVRAPVAHPRKPLLYVDVDLPQGQRDRLALYTGDDVQDVAQRFSILHGLSESLCQRLETALTAELCALSVGKAA”, “not soluble”; for “SMFIKKIKAKANNNEINVIIEIPMNSGPIKYEFDKESGALFVDRFMQTTMSYPCNYGFIPDTLSNDGDPVDVLVVAHHPVVPGSVIKCRAIGVLMMEDESGLDEKIIAVPTSKLDITFDHIKELDDLCEMLKKRIVHFFEHYKDLEKGKWVKVTGWGDKVKAETLIKEGIDRN”, “soluble”. For “MSLNEKVALVTGASRGIGFEVAHALASKGATVVGTATSQASAEKFENSMKEKGFKARGLVLNISDIESIQNFFAEIKAENLAIDILVNNAGITRDNLMMRMSEDEWQSVINTNLSSIFRMSKECVRGMMKKRWGRIISIGSVVGSAGNPGQTNYCAAKAGVIGFSKSLAYEVASRNITVNVVAPGFIATDMTDKLTDEQKSFIATKIPSGQIGEPKDIAAAVAFLASEEAKYITGQTLHVNGGMYMA”, the “soluble on expression in E. coli” value is listed as “soluble”.

Regarding “MGSDKIHHHHHHKVEDLVQIATALEVDTIVLNDELSPSQLTNLEKETNLHFIDRTGLILEIFANRAHSREAKLQVELAKLQYQLPRLRTSSTQRLDQQTAGNTGGGFTNRGSGETKLELNRRTIRNKINHINKELKEMTTSSDIQRKQRDKKDIPSVALVGYTNTGKSTTMNGLVRMYGRNEDKQVFEKDMLFATLDTSVRKLTFPDQKELVLSDTVGFVSHLPHQLVKAFRSTLAEAAKADLLVQIVDISDPHYREMMQTTEDTLNEIGVTDIPMIYAFNKADLAGVSYPTLDGNELTYSAKQLQSLEMVTALIKKQVFKNYVEAKFLIPFNEGQVVDFLNGNADVKKTDYTEEGTEITAELKEKDYQRLARYVIQ”, the “soluble on expression in E. coli” value was “not soluble”. With “MRRAFLVNSDKCIGCRGCAMACKSFNQLEPDRFWRYVYPLDKDIYPHEERAFYSLACNHCEHPACVAACPVEAYTKREDGVVVHNPERCIGCKNCIRNCPYGAPRFNEETRKAEKCSMCYERLDIGMNPACVNACPVGALSIIDLDADPVPDNAVQYPPGFPHMPQLNPGTRFILARQPKQPEDK”, the “soluble on expression in E. coli” value is “not soluble”. For “KKTSGNQDEILVIRKGWLTINNIGIMKGGSKEYWFVLTAENLSWYKDDEEKEKKYMLSVDNLKLRDVEKGFMSSKHIFALFNTEQRNVYKDYRQLELACETQEEVDSWKASFLRAGVYPERV” the value was “soluble”; for “AEHSHESTLVQAGERIHITAQGVSAIETIDTRTISDAWQYRHLVVQNRPLTEVLDELNRHRRGHILYDRAQLQGIDMAVVLPLDDTDRALQLLVDSLPMIRIRTLTPYLVLVDLAPA”, “not soluble”. Regarding “MAHCTEYMNAPKKLPADVAEELATTAQKLVQAGKGILAADESTQTIKKRFDNIKLENTIENRASYRDLLFGTKGLGKFISGAILFEETLFQKNEAGVPMVNLLHNENIIPGIKVDKGLVNIPCTDEEKSTQGLDGLAERCKEYYKAGARFAKWRTVLVIDTAKGKPTDLSIHETAWGLARYASICQQNRLVPIVEPEILADGPHSIEVCAVVTQKVLSCVFKALQENGVLLEGALLKPNMVTAGYECTAKTTTQDVGFLTVRTLRRTVPPALPGVVFLSGGQSEEEASVNLNSINALGPHPWALTFSYGRALQASVLNTWQGKKENVAKAREVLLQRAEANSLATYGKYKGGAGGENAGASLYEKKYVY”, the “soluble on expression in E. coli” value is reported as “soluble”.

Take “MSLESIKKRAYEIENELGKEIEEVCNFIFNNPELGEEEYISSKYLVEKMKEYGFDTVYPYCNMETAFRAELGDNDGPTIAFLAEYDALPGYGENKEPAHACGHNWIAASTLGACIVLSKLKENFKGKIVLIGTPAEETTGGKCDLVKAGAFDDVDVSYQMHIEAFNNINCKALAIDSLEFSFEGVSAHAASHPHMGVNALDAVQLTFAGINALRQHVKSDVRIHGIVSNGGEAPNIVPEKAACKFFVRAAERSYLDEVTKKVINCAKGAELMTGAKLSYRYFENSFDNIINNKVLQKITKNNLIEAGITDILEGKDGPVGSTDIGNVSQVCPTMYTEIALDISPMVYVHEKEFLNYANSEEAYDKLHKAVKAMVGCALEIYLEDGLLDEIKKNHLNEGHHHHHH”: the “soluble on expression in E. coli” value is reported as “soluble”. As to “GPGSMSDSTTEKIFLLYATFSEIHRELLMEHHKTHPEHKTYMDILNYLREEEGVKQSLLKKNSNWEILQQKKLTAIENVAISVKREIPGGFSNSAIVRNALPHAVVLSGFSTSSQTNENWVRLHMQLLDEQTKLVREYNDKRFLNASVKRMIVLCHEHGCDGVAGRLKREFGVSDKMHCWSMLDAYTTMSQWGLIDQLGDVKNKNKPVIGASAFINTLLACGRQEQAKQYIHKIPQIEQRMEYYLLCSDWEGAGADCRRHGEPDLLTQLKDRVKGDASAVQLIDKGWNSVQESGAVKLAKLFA”, the “soluble on expression in E. coli” value is on record as “not soluble”.

In the case of “MPCTDKGMIDLARKTVKLTTLRQGEEATIAGISKACRGANRRRLLDLGFVRGSRIAIDLTSPLGNPTAYVVRGTAIALRRDQARYILIYR”, the “soluble on expression in E. coli” value is recorded as “not soluble”. In the case of “MSKKKVQNTNKKMKECWLTPIPQNVETVNMTVSFKIDEKDVGKPANEVIRINENSMVSFLSTNSFYNGLILSDKIVKVNGASGNISKYQTELMKGETCSVEVTRRKNIIPATRERLKKSGCVLRRDNTCFVIEVEKTSAMKSATVGVTVTYIQKRGIVTRIEPSSLASIFFGRGDLIMDINEESILNAEKNDDFIREKLSGILKGEKVTFLVERPVSVESANTLRHLIESVAPDPDVKMANDAICIGRNASNMHYNVLKKLQPKSILSRDVFKGKNPREKKPGKKLSKEKDNTIKISTATSTANISTDVAEDEIDNLKNVVTKSHAVRSGDEEEERGAFDDE”, the “soluble on expression in E. coli” value is “not soluble”. For “MSLAYKPDDAAPFRSVTRQVLFSDLRLGCEWRYFEVAEGGYSTLERHQHVHATMIHRGRGQCLVGDVISDVAVGDLVFIPPMTWHQFRANAGDVLGFLCLVNADRDREGHHHHHH” the value was “not soluble”.
